From patent US7488590B2, “Modified peptides as therapeutic agents” (Amgen Inc., priority 1998, dated 2009)
Where “and” joins values, the source holds several entries; their conditions need not be identical. Identical values can stand only once. Entries after “also recorded” stand apart in the source; their conditions may differ. Where no end group is shown, it is not given here. Side-chain parts run from the residue outwards. maleimide = maleimide-containing PEG attached to the Cys side-chain thiol; PEG = not defined here

Assays:
human mpl receptor = target: T1, human mpl receptor (Homo sapiens, UniProt P40238); assay: TPO in vitro bioassay: mitogenic (cell-proliferation) assay in IL-3 dependent murine 32D cells transfected with human mpl receptor; format: cell-based
T1 construct: murine 32D cells transfected with the full-length c-Mpl; expressed in transfected cells; host or cells: IL-3 dependent clone of murine 32D cells
T1 sequence (P40238 26-635): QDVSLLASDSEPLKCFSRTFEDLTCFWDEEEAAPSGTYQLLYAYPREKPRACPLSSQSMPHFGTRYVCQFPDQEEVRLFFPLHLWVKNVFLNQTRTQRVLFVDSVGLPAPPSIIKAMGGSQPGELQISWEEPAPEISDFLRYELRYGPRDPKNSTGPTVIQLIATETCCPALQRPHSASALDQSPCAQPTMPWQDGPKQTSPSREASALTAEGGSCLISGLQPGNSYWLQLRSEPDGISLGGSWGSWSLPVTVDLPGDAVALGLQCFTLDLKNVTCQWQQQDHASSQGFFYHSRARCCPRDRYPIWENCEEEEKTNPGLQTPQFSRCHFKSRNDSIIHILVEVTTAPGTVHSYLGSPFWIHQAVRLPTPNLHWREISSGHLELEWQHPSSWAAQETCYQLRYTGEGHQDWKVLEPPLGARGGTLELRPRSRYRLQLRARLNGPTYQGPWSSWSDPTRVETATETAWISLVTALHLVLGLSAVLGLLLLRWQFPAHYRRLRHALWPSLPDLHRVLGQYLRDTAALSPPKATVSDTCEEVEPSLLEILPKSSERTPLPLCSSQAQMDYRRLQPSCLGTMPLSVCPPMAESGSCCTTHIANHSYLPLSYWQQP
Experimental: Bioactivity assay. The TPO in vitro bioassay is a mitogenic assay utilizing an IL-3 dependent clone of murine 32D cells that have been transfected with human mpl receptor. This assay is described in greater detail in WO 95/26746. Cells are maintained in MEM medium containing 10% Fetal Clone II and 1 ng/ml mIL-3. Prior to sample addition, cells are prepared by rinsing twice with growth medium lacking mIL-3. An extended twelve point TPO standard curve is prepared, ranging from […]. Four dilutions, estimated to fall within the linear portion of the standard curve, (100 to 125 pg/ml), are prepared for each sample and run in triplicate. A volume of 100 μl of each dilution of sample or standard is added to appropriate wells of a 96 well microtiter plate containing 10,000 cells/well. After forty-four hours at 37° C. and 10% CO2, MTS (a tetrazolium compound which is bioreduced by cells to a formazan) is added to each well. Approximately six hours later, the optical density is read on a plate reader at 490 nm. A dose response curve (log TPO concentration vs. O.D.-Background) is generated and linear regression analysis of points which fall in the linear portion of the standard curve is performed. Concentrations of unknown test samples are determined using the resulting linear equation and a correction for the dilution factor.
The resulting peptides are readily accessible by conventional solid phase peptide synthesis methods (Merrifield (1963), J. Amer. Chem. Soc. 85: 2149) with either Fmoc or t-Boc chemistry. […] This might be due to differences in the conditions used in the two assays. […] It is interesting to note that a wide range of length is tolerated by the linker. The optimal linker between tandem peptides with the selected TMP monomers apparently is composed of 8 glycines.

IL-1R = target: T2, IL-1R (Homo sapiens, UniProt P14778); assay: IL-1 Receptor Binding competition assay (IGEN system); details: 0.4 nM biotin-IL-1R + 15 nM IL-1-TAG, competitor 3 uM to 1.5 pM
T2 sequence (P14778 18-569): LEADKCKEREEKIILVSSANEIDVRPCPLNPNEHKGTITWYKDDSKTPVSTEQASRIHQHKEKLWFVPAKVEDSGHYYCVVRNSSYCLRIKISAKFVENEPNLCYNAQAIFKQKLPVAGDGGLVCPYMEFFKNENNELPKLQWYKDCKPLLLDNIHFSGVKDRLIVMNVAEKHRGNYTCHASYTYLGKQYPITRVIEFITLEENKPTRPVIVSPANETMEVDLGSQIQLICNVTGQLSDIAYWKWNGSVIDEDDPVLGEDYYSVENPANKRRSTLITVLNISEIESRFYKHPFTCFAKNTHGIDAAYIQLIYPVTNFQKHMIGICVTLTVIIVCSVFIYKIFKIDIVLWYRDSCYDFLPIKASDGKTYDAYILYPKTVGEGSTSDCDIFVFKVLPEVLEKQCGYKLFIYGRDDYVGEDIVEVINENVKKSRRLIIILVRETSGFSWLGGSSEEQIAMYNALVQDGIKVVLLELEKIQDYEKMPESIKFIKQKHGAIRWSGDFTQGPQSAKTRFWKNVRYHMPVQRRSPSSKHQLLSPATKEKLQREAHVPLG
Experimental: Characterization of Fc-IL-1 antagonist peptide and IL-1 antagonist peptide-Fc activity. IL-1 Receptor Binding competition between IL-1β, IL-1RA and Fc-conjugated IL-1 peptide sequences was carried out using the IGEN system. Reactions contained 0.4 nM biotin-IL-1R+15 nM IL-1-TAG+3 uM competitor+20 ug/ml streptavidin-conjugate beads, where competitors were IL-1RA, Fc-IL-1 antagonist, IL-1 antagonist-Fc). Competition was assayed over a range of competitor concentrations from 3 uM to 1.5 pM.

[1] = TPO-dependent cell-proliferation assay, 32D cells transfected with c-Mpl

Substance | in vitro bioactivity (in words) (human mpl receptor; [1]) | further results
21: TMP tandem repeat with potential glycosylation motif NGS in its 8-amino acid linker (IEGPTLRQWLAARAGGGNGSGGIEGPTLRQWLAARA; TPO-MIMETIC PEPTIDES) [compound 21] | maintained high bioactivity; also recorded: activity comparable to that of the —(G)8— linked analog | 
IEGPTLRQWLAARA (TMP) [reference compound] | relatively low biopotency | 
IL-1RA: competitor in the IL-1 receptor binding competition assay |  | EC50 (IL-1R): 2.65 nM; Ki (IL-1R): 1.41 nM
peptide 13: TMP tandem repeat with a linker composed of GPNG (IEGPTLRQWLAARAGPNGIEGPTLRQWLAARA; TPO-MIMETIC PEPTIDES) |  | increase in potency as compared to the monomer (human mpl receptor; TPO-dependent cell-proliferation assay, 32D cells transfected with c-Mpl, versus TMP monomer): about 100 fold; decrease in activity versus the equivalent GGGG-linked analog (human mpl receptor; cell-proliferation assay, versus tandem repeat with 4-Gly linker): > 10 fold and 10 fold
peptide 16: TMP tandem repeat in which the two Trp residues were replaced by Ala (IEGPTLRQWLAARAGGGGGGGGIEGPTLRQWLAARA; TPO-MIMETIC PEPTIDES) | inactive | 
peptide 19: PEGylated peptide (SEQ ID NO: 3); Lys side chain in linker modified by 5 kDa PEG (IEGPTLRQWLAARAGGGK(PEG 5 kDa)GGGGIEGPTLRQWLAARA) | even higher in vitro bioactivity as compared to their unpegylated counterparts | 
peptide 20: PEGylated peptide (SEQ ID NO: 4); Cys side chain in linker modified by maleimide-containing PEG (IEGPTLRQWLAARAGGGC([maleimide-PEG])GGGGIEGPTLRQWLAARA; reading uncertain) | even higher in vitro bioactivity as compared to their unpegylated counterparts | 
